B1: NP_116010.1 (parent)
chain: HSLRAVSTDPPHHDHHDEFCLMP

Tests used:
[1] = variants of: B1; assay: protein stability index of a GFP-peptide fusion (GPS, HEK-293T) (PSI 1-6); higher = more stable; conditions: c terminus: native
[2] = variants of: B1; assay: as above; conditions: c terminus: native; remark: listed apart in the source

Row | Variant | protein stability index [1] | protein stability index [2]
1 | P11M | 2.71 | 2.95
2 | P11E | 2.72 | 2.81
3 | P11T | 2.24 | 1.9
4 | P11Y | 2.26 | 3.15
5 | P11D | 2.73 | 2.3
6 | P11I | 2.58 | 2.28
7 | P11A | 2.67 | 2.67
8 | P11S | 2.34 | 2.58
9 | P11Q | 2.56 | 1.99
10 | P11K | 2.65 | 2.58
11 | P11L | 2.55 | 4.46
12 | P11W | 2.16 | 2.29
13 | P11G | 2.59 | 2.46
14 | P11F | 2.44 | 1.5
15 | P11R | 2.42 | 2.66
16 | P11N | 2.5 | 2.41
17 | P11C | 2.44 | 1.57
18 | P11V | 2.21 | 1.74
19 | H15N | 2.76 | 2.07
20 | H15L | 2.33 | 1.7
21 | H15K | 2.6 | 2.5
22 | H15R | 2.32 | 2.15
23 | H15V | 2.81 | 3.14

Row | Variant | protein stability index [1] | protein stability index [2]
24 | H15F | 2.32 | 2.69
25 | H15M | 2.56 | 2.16
26 | H15S | 2.76 | 1.8
27 | H15W | 2.14 | 2.11
28 | H15C | 2.52 | 4.24
29 | H15Y | 2.53 | 1.84
30 | H15T | 2.58 | 1.86
31 | H15A | 2.57 | 1.93
32 | H15G | 2.88 | 2.48
33 | H15D | 3.15 | 2.08
34 | H15Q | 2.48 | 2.79
35 | H15E | 3 | 1.67
36 | T8R | 2.33 | 3.01
37 | T8N | 2.36 | 2.4
38 | T8V | 2.26 | 2.82
39 | T8W | 1.99 | 2.87
40 | T8Q | 2.46 | 2.69
41 | T8Y | 2.54 | 2.14
42 | T8M | 2.48 | 2.27
43 | T8S | 2.13 | 2.85
44 | T8L | 2.36 | 2.95
45 | T8K | 2.28 | 2.99
46 | H12G | 2.68 | 2.16

Row | Variant | protein stability index [1] | protein stability index [2]
47 | H12I | 2.53 | 1.98
48 | H12W | 2.27 | 3.29
49 | H12Y | 2.46 | 2.19
50 | H12N | 2.58 | 2.79
51 | H12Q | 2.69 | 2.12
52 | H12R | 2.32 | 2.76
53 | H12C | 2.37 | 2.4
54 | H12D | 2.73 | 2.2
55 | H12M | 2.52 | 2.12
56 | H12E | 2.87 | 2.75
57 | H12S | 2.8 | 2.33
58 | H12F | 2.62 | 2.49
59 | H12K | 2.87 | 3.08
60 | H12A | 2.44 | 1.65
61 | H12L | 2.79 | 2.83
62 | H12V | 2.73 | 2.67
63 | P10H | 2.43 | 2.57
64 | P10Q | 2.56 | 2.28
65 | P10A | 2.38 | 2.39
66 | P10E | 2.77 | 2.47
67 | P10G | 2.46 | 1.84
68 | P10D | 2.88 | 
69 | P10C | 2.29 | 2.09

Row | Variant | protein stability index [1] | protein stability index [2]
70 | P10Y | 2.4 | 2.47
71 | P10T | 2.56 | 2.11
72 | P10M | 2.47 | 2.82
73 | P10I | 2.48 | 3.15
74 | P10K | 2.58 | 1.43
75 | P10L | 2.43 | 3.21
76 | P10N | 2.27 | 1.91
77 | P10F | 2.67 | 
78 | P10R | 2.26 | 3.17
79 | P10V | 2.29 | 2.25
80 | P10W | 2.37 | 2.88
81 | P10S | 2.03 | 2.05
82 | M22K | 4 | 3.36
83 | M22E | 3.21 | 2.4
84 | M22W | 2.78 | 2.48
85 | M22R | 3.24 | 2.74
86 | M22V | 2.95 | 2.75
87 | M22Q | 2.9 | 2.83
88 | C20A | 2.8 | 2.05
89 | C20M | 3.14 | 2.16
90 | C20H | 3.74 | 2.41
91 | C20R | 4.76 | 3.55
92 | C20I | 4.33 | 3.11

Row | Variant | protein stability index [1] | protein stability index [2]
93 | C20W | 3.48 | 3.13
94 | C20K | 4.78 | 4.4
95 | C20S | 2.48 | 2.35
96 | C20Q | 2.59 | 1.89
97 | C20G | 2.09 | 3.08
98 | C20T | 3.61 | 2.3
99 | C20F | 4.5 | 3.54
100 | C20N | 3.24 | 2.21
101 | C20E | 2.5 | 2.34
102 | C20D | 3.8 | 2.69
103 | C20V | 4.51 | 3.09
104 | C20L | 4.58 | 3.49
105 | L21E | 3.53 | 2.51
106 | L21Y | 2.39 | 2.2
107 | L21N | 3.18 | 2.84
108 | L21H | 2.92 | 1.22
109 | L21S | 3.23 | 2.31
110 | L21W | 2.9 | 1.92
111 | L21C | 2.9 | 2.63
112 | L21T | 3.14 | 2.47
113 | L21K | 3.1 | 2.07
114 | L21R | 2.33 | 1.99
115 | L21M | 2.39 | 2.21
